Results reported in paper PMC5499591 (Nucleic Acids Research, 2017).
Numbering of substitutions follows the chain as printed.

Assays:
GST-Mcm10 (wild type) = target: T1, GST-Mcm10 (wild type) (Saccharomyces cerevisiae, UniProt P32354 1-571); assay: GST pull-down
T1 sequence: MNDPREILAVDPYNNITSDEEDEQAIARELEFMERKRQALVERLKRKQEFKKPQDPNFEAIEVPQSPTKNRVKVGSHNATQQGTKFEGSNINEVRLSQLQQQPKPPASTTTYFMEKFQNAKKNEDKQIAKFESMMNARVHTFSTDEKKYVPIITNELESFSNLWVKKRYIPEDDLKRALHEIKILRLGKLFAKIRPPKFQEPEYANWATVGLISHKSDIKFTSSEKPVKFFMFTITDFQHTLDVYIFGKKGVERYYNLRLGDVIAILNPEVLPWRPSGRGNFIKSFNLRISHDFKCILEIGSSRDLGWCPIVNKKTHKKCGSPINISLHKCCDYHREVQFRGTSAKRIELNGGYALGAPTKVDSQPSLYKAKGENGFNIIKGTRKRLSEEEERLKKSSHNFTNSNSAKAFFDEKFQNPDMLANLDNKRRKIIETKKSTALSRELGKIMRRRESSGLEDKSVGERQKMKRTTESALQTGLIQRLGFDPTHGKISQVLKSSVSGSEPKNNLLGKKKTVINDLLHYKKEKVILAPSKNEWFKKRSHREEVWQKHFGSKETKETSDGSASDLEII

GST-Mcm10-4A = target: T2, GST-Mcm10-4A (Saccharomyces cerevisiae, UniProt P32354 1-571, I26A;L30A;R37A;L40A); assay: GST pull-down
T2 sequence: T1 sequence with I26A, L30A, R37A, L40A

ATGTCCTAGCAAGCCAGAATTCGGC (ssDNA) [25mer ssDNA]
binding result (GST-Mcm10 (wild type)): binds
binding result (GST-Mcm10-4A): binds
